The series deals with the molecule itself. Put plainly: negative stain electron microscopy of filaments; self-assembly into filaments on dilution into low-salt buffer (10 mM phosphate, pH 7.4, 150 mM NaCl, 0.5 mM TCEP), on ice, 200 to 500 nM protein; stained with 1% uranyl acetate.

B1: GST-LMM, wild type (light meromyosin of human non-muscle myosin 2A heavy chain, residues 1212-1960) (domain or fragment, UniProt P35579 1212-1960, looked up)
chain: KANLEKAKQTLENERGELANEVKVLLQGKGDSEHKRKKVEAQLQELQVKFNEGERVRTELADKVTKLQVELDNVTGLLSQSDSKSSKLTKDFSALESQLQDTQELLQEENRQKLSLSTKLKQVEDEKNSFREQLEEEEEAKHNLEKQIATLHAQVADMKKKMEDSVGCLETAEEVKRKLQKDLEGLSQRHEEKVAAYDKLEKTKTRLQQELDDLLVDLDHQRQSACNLEKKQKKFDQLLAEEKTISAKYAEERDRAEAEAREKETKALSLARALEEAMEQKAELERLNKQFRTEMEDLMSSKDDVGKSVHELEKSKRALEQQVEEMKTQLEELEDELQATEDAKLRLEVNLQAMKAQFERDLQGRDEQSEEKKKQLVRQVREMEAELEDERKQRSMAVAARKKLEMDLKDLEAHIDSANKNRDEAIKQLRKLQAQMKDCMRELDDTRASREEILAQAKENEKKLKSMEAEMIQLQEELAAAERAKRQAQQERDELADEIANSSGKGALALEEKRRLEARIAQLEEELEEEQGNTELINDRLKKANLQIDQINTDLNLERSHAQKNENARQQLERQNKELKVKLQEMEGTVKSKYKASITALEAKIAQLEEQLDNETKERQAACKQVRRTEKKLKDVLLQVDDERRNAEQYKDQADKASTRLKQLKRQLEEAEEEAQRANASRRKLQRELEDATETADAMNREVSSLKNKLRRGDLPFVVPRRMARKGAGDGSDEEVDGKADGAEAKPAE
notes: pGEX-6P-1 adds GST and a PreScission site at the N-terminus; GST kept for EM; also called WT GST-LMM; source: E. coli Rosetta 2, purified (Glutathione Sepharose 4B); not shown: GST, N-terminal, kept
For the protein B1, the binding result was “binds”.

B2: GST-LMM D1447G (domain or fragment, human, UniProt P35579 1212-1960, looked up)
chain: KANLEKAKQTLENERGELANEVKVLLQGKGDSEHKRKKVEAQLQELQVKFNEGERVRTELADKVTKLQVELDNVTGLLSQSDSKSSKLTKDFSALESQLQDTQELLQEENRQKLSLSTKLKQVEDEKNSFREQLEEEEEAKHNLEKQIATLHAQVADMKKKMEDSVGCLETAEEVKRKLQKDLEGLSQRHEEKVAAYDKLEKTKTRLQQELDDLLVDLDHQRQSACNLEKKQKKFGQLLAEEKTISAKYAEERDRAEAEAREKETKALSLARALEEAMEQKAELERLNKQFRTEMEDLMSSKDDVGKSVHELEKSKRALEQQVEEMKTQLEELEDELQATEDAKLRLEVNLQAMKAQFERDLQGRDEQSEEKKKQLVRQVREMEAELEDERKQRSMAVAARKKLEMDLKDLEAHIDSANKNRDEAIKQLRKLQAQMKDCMRELDDTRASREEILAQAKENEKKLKSMEAEMIQLQEELAAAERAKRQAQQERDELADEIANSSGKGALALEEKRRLEARIAQLEEELEEEQGNTELINDRLKKANLQIDQINTDLNLERSHAQKNENARQQLERQNKELKVKLQEMEGTVKSKYKASITALEAKIAQLEEQLDNETKERQAACKQVRRTEKKLKDVLLQVDDERRNAEQYKDQADKASTRLKQLKRQLEEAEEEAQRANASRRKLQRELEDATETADAMNREVSSLKNKLRRGDLPFVVPRRMARKGAGDGSDEEVDGKADGAEAKPAE
notes: MYH9 disease mutation; source: E. coli Rosetta 2, purified (Glutathione Sepharose 4B); not shown: GST, N-terminal, kept
Regarding B2, the binding result is reported as “binds”.

B3: GST-LMM D1424G (domain or fragment, human, UniProt P35579 1212-1960, looked up)
chain: KANLEKAKQTLENERGELANEVKVLLQGKGDSEHKRKKVEAQLQELQVKFNEGERVRTELADKVTKLQVELDNVTGLLSQSDSKSSKLTKDFSALESQLQDTQELLQEENRQKLSLSTKLKQVEDEKNSFREQLEEEEEAKHNLEKQIATLHAQVADMKKKMEDSVGCLETAEEVKRKLQKDLEGLSQRHEEKVAAYDKLEKTKTRLQQELDGLLVDLDHQRQSACNLEKKQKKFDQLLAEEKTISAKYAEERDRAEAEAREKETKALSLARALEEAMEQKAELERLNKQFRTEMEDLMSSKDDVGKSVHELEKSKRALEQQVEEMKTQLEELEDELQATEDAKLRLEVNLQAMKAQFERDLQGRDEQSEEKKKQLVRQVREMEAELEDERKQRSMAVAARKKLEMDLKDLEAHIDSANKNRDEAIKQLRKLQAQMKDCMRELDDTRASREEILAQAKENEKKLKSMEAEMIQLQEELAAAERAKRQAQQERDELADEIANSSGKGALALEEKRRLEARIAQLEEELEEEQGNTELINDRLKKANLQIDQINTDLNLERSHAQKNENARQQLERQNKELKVKLQEMEGTVKSKYKASITALEAKIAQLEEQLDNETKERQAACKQVRRTEKKLKDVLLQVDDERRNAEQYKDQADKASTRLKQLKRQLEEAEEEAQRANASRRKLQRELEDATETADAMNREVSSLKNKLRRGDLPFVVPRRMARKGAGDGSDEEVDGKADGAEAKPAE
notes: as for B2
Consider B3, for which the binding result is reported as “binds”.

B4: GST-LMM D1447H (domain or fragment, human, UniProt P35579 1212-1960, looked up)
chain: KANLEKAKQTLENERGELANEVKVLLQGKGDSEHKRKKVEAQLQELQVKFNEGERVRTELADKVTKLQVELDNVTGLLSQSDSKSSKLTKDFSALESQLQDTQELLQEENRQKLSLSTKLKQVEDEKNSFREQLEEEEEAKHNLEKQIATLHAQVADMKKKMEDSVGCLETAEEVKRKLQKDLEGLSQRHEEKVAAYDKLEKTKTRLQQELDDLLVDLDHQRQSACNLEKKQKKFHQLLAEEKTISAKYAEERDRAEAEAREKETKALSLARALEEAMEQKAELERLNKQFRTEMEDLMSSKDDVGKSVHELEKSKRALEQQVEEMKTQLEELEDELQATEDAKLRLEVNLQAMKAQFERDLQGRDEQSEEKKKQLVRQVREMEAELEDERKQRSMAVAARKKLEMDLKDLEAHIDSANKNRDEAIKQLRKLQAQMKDCMRELDDTRASREEILAQAKENEKKLKSMEAEMIQLQEELAAAERAKRQAQQERDELADEIANSSGKGALALEEKRRLEARIAQLEEELEEEQGNTELINDRLKKANLQIDQINTDLNLERSHAQKNENARQQLERQNKELKVKLQEMEGTVKSKYKASITALEAKIAQLEEQLDNETKERQAACKQVRRTEKKLKDVLLQVDDERRNAEQYKDQADKASTRLKQLKRQLEEAEEEAQRANASRRKLQRELEDATETADAMNREVSSLKNKLRRGDLPFVVPRRMARKGAGDGSDEEVDGKADGAEAKPAE
notes: as for B2
Consider B4, for which the binding result was “binds”.

B5: GST-LMM E1841K (domain or fragment, human, UniProt P35579 1212-1960, looked up)
chain: KANLEKAKQTLENERGELANEVKVLLQGKGDSEHKRKKVEAQLQELQVKFNEGERVRTELADKVTKLQVELDNVTGLLSQSDSKSSKLTKDFSALESQLQDTQELLQEENRQKLSLSTKLKQVEDEKNSFREQLEEEEEAKHNLEKQIATLHAQVADMKKKMEDSVGCLETAEEVKRKLQKDLEGLSQRHEEKVAAYDKLEKTKTRLQQELDDLLVDLDHQRQSACNLEKKQKKFDQLLAEEKTISAKYAEERDRAEAEAREKETKALSLARALEEAMEQKAELERLNKQFRTEMEDLMSSKDDVGKSVHELEKSKRALEQQVEEMKTQLEELEDELQATEDAKLRLEVNLQAMKAQFERDLQGRDEQSEEKKKQLVRQVREMEAELEDERKQRSMAVAARKKLEMDLKDLEAHIDSANKNRDEAIKQLRKLQAQMKDCMRELDDTRASREEILAQAKENEKKLKSMEAEMIQLQEELAAAERAKRQAQQERDELADEIANSSGKGALALEEKRRLEARIAQLEEELEEEQGNTELINDRLKKANLQIDQINTDLNLERSHAQKNENARQQLERQNKELKVKLQEMEGTVKSKYKASITALEAKIAQLEEQLDNETKERQAACKQVRRTKKKLKDVLLQVDDERRNAEQYKDQADKASTRLKQLKRQLEEAEEEAQRANASRRKLQRELEDATETADAMNREVSSLKNKLRRGDLPFVVPRRMARKGAGDGSDEEVDGKADGAEAKPAE
notes: MYH9 disease mutation; also called E1814K [sic]; source: E. coli Rosetta 2, purified (Glutathione Sepharose 4B); not shown: GST, N-terminal, kept
B5: the binding result is on record as “binds”.

B6: GST-LMM D1424N (domain or fragment, human, UniProt P35579 1212-1960, looked up)
chain: KANLEKAKQTLENERGELANEVKVLLQGKGDSEHKRKKVEAQLQELQVKFNEGERVRTELADKVTKLQVELDNVTGLLSQSDSKSSKLTKDFSALESQLQDTQELLQEENRQKLSLSTKLKQVEDEKNSFREQLEEEEEAKHNLEKQIATLHAQVADMKKKMEDSVGCLETAEEVKRKLQKDLEGLSQRHEEKVAAYDKLEKTKTRLQQELDNLLVDLDHQRQSACNLEKKQKKFDQLLAEEKTISAKYAEERDRAEAEAREKETKALSLARALEEAMEQKAELERLNKQFRTEMEDLMSSKDDVGKSVHELEKSKRALEQQVEEMKTQLEELEDELQATEDAKLRLEVNLQAMKAQFERDLQGRDEQSEEKKKQLVRQVREMEAELEDERKQRSMAVAARKKLEMDLKDLEAHIDSANKNRDEAIKQLRKLQAQMKDCMRELDDTRASREEILAQAKENEKKLKSMEAEMIQLQEELAAAERAKRQAQQERDELADEIANSSGKGALALEEKRRLEARIAQLEEELEEEQGNTELINDRLKKANLQIDQINTDLNLERSHAQKNENARQQLERQNKELKVKLQEMEGTVKSKYKASITALEAKIAQLEEQLDNETKERQAACKQVRRTEKKLKDVLLQVDDERRNAEQYKDQADKASTRLKQLKRQLEEAEEEAQRANASRRKLQRELEDATETADAMNREVSSLKNKLRRGDLPFVVPRRMARKGAGDGSDEEVDGKADGAEAKPAE
notes: as for B2
Take B6: the binding result is listed as “binds”.

B7: GST-LMM V1516M (domain or fragment, human, UniProt P35579 1212-1960, looked up)
chain: KANLEKAKQTLENERGELANEVKVLLQGKGDSEHKRKKVEAQLQELQVKFNEGERVRTELADKVTKLQVELDNVTGLLSQSDSKSSKLTKDFSALESQLQDTQELLQEENRQKLSLSTKLKQVEDEKNSFREQLEEEEEAKHNLEKQIATLHAQVADMKKKMEDSVGCLETAEEVKRKLQKDLEGLSQRHEEKVAAYDKLEKTKTRLQQELDDLLVDLDHQRQSACNLEKKQKKFDQLLAEEKTISAKYAEERDRAEAEAREKETKALSLARALEEAMEQKAELERLNKQFRTEMEDLMSSKDDMGKSVHELEKSKRALEQQVEEMKTQLEELEDELQATEDAKLRLEVNLQAMKAQFERDLQGRDEQSEEKKKQLVRQVREMEAELEDERKQRSMAVAARKKLEMDLKDLEAHIDSANKNRDEAIKQLRKLQAQMKDCMRELDDTRASREEILAQAKENEKKLKSMEAEMIQLQEELAAAERAKRQAQQERDELADEIANSSGKGALALEEKRRLEARIAQLEEELEEEQGNTELINDRLKKANLQIDQINTDLNLERSHAQKNENARQQLERQNKELKVKLQEMEGTVKSKYKASITALEAKIAQLEEQLDNETKERQAACKQVRRTEKKLKDVLLQVDDERRNAEQYKDQADKASTRLKQLKRQLEEAEEEAQRANASRRKLQRELEDATETADAMNREVSSLKNKLRRGDLPFVVPRRMARKGAGDGSDEEVDGKADGAEAKPAE
notes: MYH9 disease mutation; also called V1615M [sic]; source: E. coli Rosetta 2, purified (Glutathione Sepharose 4B); not shown: GST, N-terminal, kept
In the case of B7, the binding result is given as “binds”.

Source of the values: article PMC10770755, “Effects of specific disease mutations in non-muscle myosin 2A on its structure and function” (The Journal of Biological Chemistry, 2023).
